Results from patent US6855515B1, “Autoantigenic fragments, methods and assays” (Merck & Co., Inc., priority 1998, dated 2005).

Assays:
Type in all cases: biochemical
[1] = molecular target: caspase-8 (Homo sapiens, UniProt Q14790); assay: Cleavage of substrates by purified caspase-8; conditions: 50 nM purified caspase-8; HeLa lysates treated with iodoacetamide, or radiolabeled IvTT substrate
Method: To confirm that these substrates were not cleaved by group III caspases, the substrates were incubated with 50 nM purified caspase-8. Cleavage assays were performed in HeLa cell lysates in which endogenous caspases had first been irreversibly inactivated by 1 mM iodoacetamide (4° C. for 15 min), prior to addition of 5 mM DTT to facilitate exogenous caspase-8 activity. No cleavage of topoisomerase-1, Mi-2, U1-70 kDa, PARP, Ku-70, RNA polymerase II large subunit, SRP-72, NuMA or Ki-67 occurred. Caspase-8 was indeed active in these lysates, as evidenced by robust caspase-3 cleavage products of PARP and U1-70 kDa seen when the IAA ‘poisoning’ step was omitted. Radiolabeled PMS1 and PMS2 (generated by IvTT) were also not cleaved by purified caspase-8.

[2] = molecular target: T1, granzyme B (Homo sapiens, UniProt P10144); assay: Susceptibility of autoantigens to cleavage by purified granzyme B (HeLa lysate immunoblot or immunoprecipitates); conditions: in vitro
T1 construct: Some of these preparations were used for the further purification of granzyme B (Tschopp, 1994); endogenous in cells; host or cells: YT cells (human NK cell line), cytoplasmic granules
Method: To determine whether susceptibility to direct cleavage by granzyme B was an isolated feature of PARP, NuMA and DNA-PKcs shown above, or whether it was a more general feature of autoantigens, a variety of well-defined autoantigens selected from across the spectrum of systemic autoimmune diseases were tested for susceptibility to cleavage by purified granzyume B. The efficiency of cleavage of the substrates by purified granzyme B was also noted (Table 3). Initially, a series of autoantibodies of well-defined specificity were used to immunoblot lysates of HeLa cells that had been incubated in vitro with or without granzyme B. Lysates were pre-treated with iodoacetamide (IAA) to prevent interference by endogenous caspase activity.
To perform these studies, HeLa cells were radiolabeled with [^35S] methionine/cysteine, and proteins were immunoprecipitated using human autoantibodies. Protein A-agarose beads containing washed precipitated proteins were resuspended in buffer supporting the activity of granzyme B, and incubated in the absence or presence of added purified granzyme B. Reaction products were visualized using SDS-PAGE and fluorography. To confirm the validity of this approach, several different autoantigens known to be cleaved by granzyme B, as well as several autoantigens and non-autoantigens that are not cleaved by granzyme B, were tested. Using autoantibodies that both immunoblot and immunprecipitate, the cleavage profiles obtained using granzyme B to cleave molecules in lysates (followed by detection with immunoblotting), and after immunoprecipitation (from [^35S]methionine-labeled HeLa lysate) were compared. Identical results were obtained using these 2 methods for cleaved autoantigens (topoisomerase-1, Mi-2, RNA polymerase II large subunit, Ku-70, PARP, and NOR-90), uncleaved autoantigens (Ku-80, Ro 60k), and control substrates (β-tubulin, vinculin). […] Of note, all these additional autoantigens (with the exception of RNA polymerase I) are targeted in autoimmune myositis. However, two other tRNA synthetases (threonyl tRNA synthetase and glycyl tRNA synthetase) that are also autoantigens in autoimmune myositis, were not cleaved using this approach.

[3] = molecular target: T1, granzyme B; assay: In vitro cleavage of substrates by purified granzyme B, kcat/Km from densitometry; conditions: ratio of kcat/Km
Method: cDNAs for caspase-3, caspase-7, NuMA and PARP were used to drive the synthesis of [^35S]methionine-labeled proteins by coupled transcription/translation in rabbit reticulocyte lysates. For all purified substrates, cleavage reactions were performed in buffer consisting of 50 mM Hepes pH 7.4, 10% sucrose and 5 mM DTT in the presence of the granzyme B concentrations indicated in FIG. 1. After incubation at 37° C. for 15 min, reactions were terminated and samples were electrophoresed on 10% (DNA-PKcs, NuMA), 12% (PARP) or 15% (caspases 3 and 7) SDS-polyacrylamide gels. Radiolabeled proteins and their fragments were visualized by fluorography. Intact and cleaved DNA-PKcs were visualized by immunoblotting with monoclonal antibody 18-2 (Casciola-Rosen et al., 1995).
Catalytic constant (kcat/km) values were calculated essentially as described (Casciola-Rosen et al., 1996). Briefly, subsaturating substrate concentrations were used in each in vitro reaction, and product appearance was assumed to be a first order process. […] Several appropriate densitometry systems are available, e.g. PDI Discovery System, with Quantity One Software, Protein Databases, Inc., (Huntington Station, N.Y.). kcat/Km values were calculated by fitting the dose-response data to the first order rate equation: percent substrate cleavage=100*((1^-e-((kcat*[E]/Km)*time)). […]

T1 sequence (P10144 21-247): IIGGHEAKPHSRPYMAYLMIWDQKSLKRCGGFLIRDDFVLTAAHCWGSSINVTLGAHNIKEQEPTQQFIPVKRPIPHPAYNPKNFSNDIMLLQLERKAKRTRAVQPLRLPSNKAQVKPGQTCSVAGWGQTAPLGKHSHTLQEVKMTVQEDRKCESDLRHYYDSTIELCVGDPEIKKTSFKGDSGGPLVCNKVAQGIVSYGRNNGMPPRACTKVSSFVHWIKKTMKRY
caspase-8, sequence (Q14790 217-374 limits assumed, species assumed): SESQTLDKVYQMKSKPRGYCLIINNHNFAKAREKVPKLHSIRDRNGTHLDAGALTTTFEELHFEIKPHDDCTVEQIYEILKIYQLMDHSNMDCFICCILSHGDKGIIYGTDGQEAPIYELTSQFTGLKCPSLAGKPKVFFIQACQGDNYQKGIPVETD
caspase-8, sequence (Q14790 385-479 limits assumed, species assumed): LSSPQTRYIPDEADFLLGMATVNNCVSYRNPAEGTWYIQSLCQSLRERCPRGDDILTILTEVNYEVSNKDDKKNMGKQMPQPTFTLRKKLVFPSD

B1: SRP-72: autoantigen (protein)
chain: ASGGSGGVSVPALWSEVNRYGQNGDFTRALKTVNKILQINKDDVTALHCKVVCLIQNGSFKEALNVINTHTKVLANNSLSFEKAYCEYRLNRIENALKTIESANQQTDKLKELYGQVLYRLERYDECLAVYRDLVRNSQDDYDEERKTNLSAVVAAQSNWEKVVPENLGLQEGTHELCYNTACALIGQGQLNQAMKILQKAEDLCRRSLSEDTDGTEEDPQAELAIIHGQMAYILQLQGRTEEALQLYNQIIKLKPTDVGLLAVIANNIITINKDQNVFDSKKKVKLTNAEGVEFKLSKKQLQAIEFNKALLAMYTNQAEQCRKISASLQSQSPEHLLPVLIQAAQLCREKQHTKAIELLQEFSDQHPENAAEIKLTMAQLKISQGNISKACLILRSIEELKHKPGMVSALVTMYSHEEDIDSAIEVFTQAIQWYQNHQPKSPAHLSLIREAANFKLKYGRKKEAISDLQQLWKQNPKDIHTLAQLISAYSLVDPEKAKALSKHLPSSDSMSLKVDVEALENSAGATYIRKKGGKVTGDSQPKEQGQGDLKKKKKKKKGKLPKNYDPKVTPDPERWLPMRERSYYRGRKKGKKKDQIGKGTQGATAGASSELDASKTVSSPPTSPRPGSAATVSASTSNIIPPRHQKPAGAPATKKKQQQKKKKGGKGGW
cleavage by caspase-8 [1]: No cleavage
susceptibility to cleavage by granzyme B [2]: efficiently cleaved

B2: Caspase-7: precursor of caspase-7 used as substrate for granzyme B (protein, UniProt P55210 2-303, looked up)
pro-form: ADDQGCIEEQGVEDSANEDSVDAKPDRSSFVPSLFSKKKKNVTMRSIKTTRDRVPTYQYNMNFEKLGKCIIINNKNFDKVTGMGVRNGTDKDAEALFKCFRSLGFDVIVYNDCSCAKMQDLLKKASEEDHTNAACFACILLSHGEENVIYGKDGVTPIKDLTAHFRGDRCKTLLEKPKLFFIQACRGTELDDGIQADSGPINDTDANPRYKIPVEADFLFAYSTVPGYYSWRSPGRGSWFVQALCSILEEHGKDLEIMQILTRVNDRVARHFESQSDDPHFHEKKQIPCVVSMLTKELYFSQ
modifications: pro-form
notes: precursor of caspase-7 used as substrate for granzyme B
efficiency of granzyme B cleavage relative to caspase-3 precursor [3]: approximately 6 fold

B3: threonyl tRNA synthetase: autoantigen in autoimmune myositis (protein)
chain: MFEEKASSPSGKMGGEEKPIGAGEEKQKEGGKKKNKEGSGDGGRAELNPWPEYIYTRLEMYNILKAEHDSILAEKAEKDSKPIKVTLPDGKQVDAESWKTTPYQIACGISQGLADNTVIAKVNNVVWDLDRPLEEDCTLELLKFEDEEAQAVYWHSSAHIMGEAMERVYGGCLCYGPPIENGFYYDMYLEEGGVSSNDFSSLEALCKKIIKEKQAFERLEVKKETLLAMFKYNKFKCRILNEKVNTPTTTVYRCGPLIDLCRGPHVRHTGKIKALKIHKNSSTYWEGKADMETLQRIYGISFPDPKMLKEWEKFQEEAKNRDHRKIGRDQELYFFHELSPGSCFFLPKGAYIYNALIEFIRSEYRKRGFQEVVTPNIFNSRLWMTSGHWQHYSENMFSFEVEKELFALKPMNCPGHCLMFDHRPRSWRELPLRLADFGVLHRNELSGALTGLTRVRRFQQDDAHIFCAMEQIEDEIKGCLDFLRTVYSVFGFSFKLNLSTRPEKFLGDIEVWDQAEKQLENSLNEFGEKWELNSGDGAFYGPKIDIQIKDAIGRYHQCATIQLDFQLPIRFNLTYVSHDGDDKKRPVIVHRAILGSVERMIAILTENYGGKWPFWLSPRQVMVVPVGPTCDEYAQKVRQQFHDAKFMADIDLDPGCTLNKKIRNAQLAQYNFILVVGEKEKISGTVNIRTRDNKVHGERTISETIERLQQLKEFRSKQAEEEF
susceptibility to cleavage by granzyme B [2]: not cleaved

B4: PMS1: autoantigen (protein)
chain: MKQLPAATVRLLSSSQIITSVVSVVKELIENSLDAGATSVDVKLENYGFDKIEVRDNGEGIKAVDAPVMAMKYYTSKINSHEDLENLTTYGFRGEALGSICCIAEVLITTRTAADNFSTQYVLDGSGHILSQKPSHLGQGTTVTALRLFKNLPVRKQFYSTAKKCKDEIKKIQDLLMSFGILKPDLRIVFVHNKAVIWQKSRVSDHKMALMSVLGTAVMNNMESFQYHSEESQIYLSGFLPKCDADHSFTSLSTPERSFIFINSRPVHQKDILKLIRHHYNLKCLKESTRLYPVFFLKIDVPTADVDVNLTPDKSQVLLQNKESVLIALENLMTTCYGPLPSTNSYENNKTDVSAADIVLSKTAETDVLFNKVESSGKNYSNVDTSVIPFQNDMHNDESGKNTDDCLNHQISIGDFGYGHCSSEISNIDKNTKNAFQDISMSNVSWENSQTEYSKTCFISSVKHTQSENGNKDHIDESGENEEEAGLENSSEISADEWSRGNILKNSVGENIEPVKILVPEKSLPCKVSNNNYPIPEQMNLNEDSCNKKSNVIDNKSGKVTAYDLLSNRVIKKPMSASALFVQDHRPQFLIENPKTSLEDATLQIEELWKTLSEEEKLKYEEKATKDLERYNSQMKRAIEQESQMSLKDGRKKIKPTSAWNLAQKHKLKTSLSNQPKLDELLQSQIEKRRSQNIKMVQIPFSMKNLKINFKKQNKVDLEEKDEPCLIHNLRFPDAWLMTSKTEVMLLNPYRVEEALLFKRLLENHKLPAEPLEKPIMLTESLFNGSHYLDVLYKMTADDQRYSGSTYLSDPRLTANGFKIKLIPGVSITENYLEIEGMANCLPFYGVADLKEILNAILNRNAKEVYECRPRKVISYLEGEAVRLSRQLPMYLSKEDIQDIIYRMKHQFGNEIKECVHGRPFFHHLTYLPETT
cleavage by caspase-8 [1]: not cleaved
susceptibility to cleavage by granzyme B [2]: efficiently cleaved

B5: glycyl tRNA synthetase: autoantigen in autoimmune myositis (protein)
chain: MDGAGAEEVLAPLRLAVRQQGDLVRKLKEDKAPQVDVDKAVAELKARKRVLEAKELALQPKDDIVDRAKMEDTLKRRFFYDQAFAIYGGVSGLYDFGPVGCALKNNIIQTWRQHFIQEEQILEIDCTMLTPEPVLKTSGHVDKFADFMVKDVKNGECFRADHLLKAHLQKLMSDKKCSVEKKSEMESVLAQLDNYGQQELADLFVNYNVKSPITGNDLSPPVSFNLMFKTFIGPGGNMPGYLRPETAQGIFLNFKRLLEFNQGKLPFAAAQIGNSFRNEISPRSGLIRVREFTMAEIEHFVDPSEKDHPKFQNVADLHLYLYSAKAQVSGQSARKMRLGDAVEQGVINNTVLGYFIGRIYLYLTKVGISPDKLRFRQHMENEMAHYACDCWDAESKTSYGWIEIVGCADRSCYDLSCHARATKVPLVAEKPLKEPKTVNVVQFEPSKGAIGKAYKKDAKLVMEYLAICDECYITEMEMLLNEKGEFTIETEGKTFQLTKDMINVKRFQKTLYVEEVVPNVIEPSFGLGRIMYTVFEHTFHVREGDEQRTFFSFPAVVAPFKCSVLPLSQNQEFMPFVKELSEALTRHGVSHKVDDSSGSIGRRYARTDEIGVAFGVTIDFDTVNKTPHTATLRDRDSMRQIRAEISELPSIVQDLANGNITWADVEARYPLFEGQETGKKETIEE
susceptibility to cleavage by granzyme B [2]: not cleaved
